Test results taken from publication doi:10.1101/008359, “TACC3–ch-TOG track the growing tips of microtubules independently of clathrin and Aurora-A phosphorylation” (bioRxiv, 2014).

B1: TACC3(629-838) (domain or fragment)
chain: not shown
notes: source: recombinant, expressed and purified as stated in earlier work [11]
B2: His-NusA-TACC3(629-838) (domain or fragment)
chain: not shown
notes: Held on Ni Sepharose beads by the His tag; source: recombinant, expressed and purified as stated in earlier work [11]; not shown: His, N-terminal, kept; NusA, N-terminal, kept

Legend:
[1] = target: T1, His-NusA-ch-TOG(1517-1957) wild type (UniProt Q14008 1517-1957); experiment: pull-down; His-NusA-ch-TOG(1517-1957) wild type and mutant proteins bound to Ni Sepharose beads, then incubated with TACC3(629-838); SDS-PAGE and Western blot with anti-TACC3 TACC domain antibody; His-NusA as tag binding control; conditions: both partners purified
T1 construct: held on Ni Sepharose beads by the His tag; source: recombinant, expressed and purified as stated in earlier work [11]; not shown: His, N-terminal, kept; NusA, N-terminal, kept
T1 sequence (Q14008 1517-1957): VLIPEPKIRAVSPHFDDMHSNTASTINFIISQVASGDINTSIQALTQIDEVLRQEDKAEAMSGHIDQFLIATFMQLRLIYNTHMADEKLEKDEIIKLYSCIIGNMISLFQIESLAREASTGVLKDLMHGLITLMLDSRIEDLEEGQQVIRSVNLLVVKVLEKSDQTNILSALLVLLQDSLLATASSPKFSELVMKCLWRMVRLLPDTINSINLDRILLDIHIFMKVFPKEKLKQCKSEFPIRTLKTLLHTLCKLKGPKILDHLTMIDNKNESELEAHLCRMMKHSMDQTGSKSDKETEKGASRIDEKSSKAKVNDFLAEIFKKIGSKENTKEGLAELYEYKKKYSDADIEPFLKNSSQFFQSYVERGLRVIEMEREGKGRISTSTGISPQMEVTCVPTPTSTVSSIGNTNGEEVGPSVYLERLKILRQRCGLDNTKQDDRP

[2] = target: T2, ch-TOG(1517-1957) (UniProt Q14008 1517-1957); experiment: pull-down; His-NusA-TACC3(629-838) bound to Ni Sepharose beads and incubated with ch-TOG proteins; His-NusA as tag binding control; conditions: both partners purified
T2 construct: source: recombinant, expressed and purified as stated in earlier work [11]
T2 sequence (Q14008 1517-1957): as above

binding result [1] | binding result [2] | Binder
binds |  | B1
 | binds | B2
